According to patent US20170101476A1 (Novartis, published 2017):
One block for each binder: values may come before it.

Experiments:
Assay in all cases: cell-based or functional assay
Human CXCR2 [1] = target: T1, Human CXCR2 (human, UniProt P25025 1-360)
T1 sequence: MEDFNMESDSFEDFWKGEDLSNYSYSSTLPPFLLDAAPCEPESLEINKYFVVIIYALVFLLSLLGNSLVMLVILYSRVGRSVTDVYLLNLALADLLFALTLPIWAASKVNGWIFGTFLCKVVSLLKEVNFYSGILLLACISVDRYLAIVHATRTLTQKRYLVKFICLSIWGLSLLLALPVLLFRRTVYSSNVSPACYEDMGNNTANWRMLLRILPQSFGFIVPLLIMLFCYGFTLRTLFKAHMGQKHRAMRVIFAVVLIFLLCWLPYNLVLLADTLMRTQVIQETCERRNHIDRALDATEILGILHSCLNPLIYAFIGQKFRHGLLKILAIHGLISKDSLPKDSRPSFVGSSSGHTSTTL

Cynomolgus CXCR2 = target: T2, Cynomolgus CXCR2 (cynomolgus, UniProt Q28519 3-353 (rhesus entry))
T2 chain: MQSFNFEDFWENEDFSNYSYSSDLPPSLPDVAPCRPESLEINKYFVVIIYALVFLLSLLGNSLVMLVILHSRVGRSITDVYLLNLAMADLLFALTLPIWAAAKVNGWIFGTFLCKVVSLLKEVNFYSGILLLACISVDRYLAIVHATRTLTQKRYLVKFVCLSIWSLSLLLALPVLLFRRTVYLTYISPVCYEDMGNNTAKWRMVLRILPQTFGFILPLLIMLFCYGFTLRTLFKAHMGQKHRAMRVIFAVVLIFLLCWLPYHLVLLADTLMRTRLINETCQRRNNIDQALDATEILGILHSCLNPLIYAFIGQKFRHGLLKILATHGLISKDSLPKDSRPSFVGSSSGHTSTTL

Human CXCR2 [2] = target: T1, Human CXCR2; remark: listed apart in the source

- FLIPR IC50, GRO-α induced intracellular calcium release (Human CXCR2 [1]): 15.2 nM
- FLIPR IC50, GRO-α induced intracellular calcium release (Cynomolgus CXCR2): 4.26 nM
- [35S]GTPγS % inhibition of max, ENA-78 (Human CXCR2 [2]): 100%
- [35S]GTPγS % inhibition of max, IL-8 (Human CXCR2 [2]): 100%
- [35S]GTPγS accumulation IC50, ENA-78 (Human CXCR2 [2]): 1.38 nM
- [35S]GTPγS accumulation IC50, IL-8 (Human CXCR2 [2]): 0.84 nM
B2: CXCR20031 (bispecific antibody, not shown: small tags and cut ends)
chain: EVQLVESGGELVQPGGSLRLSCAASGSILTINAMGWYRQAPGKQRELVVRRTRGGSTTYQDSVKGRFTISADIAKKTMYLQMNSLKPEDTAVYYCMLDDRGGVYWGQGTQVTVSSGGGGSGGGGSGGGGSGGGGSGGGGSGGGGSGGGGSEVQLVESGGGLVQPGGSLRLSCVASGRIFSSNAMGWFRQAPGKEREFVAAITWRSGGSAYYADSAKGRFTISRDNAKNTVYLQMNSLKPEDTAVYYCAAGGSSWLSFPPDYWGQGTQVTVSS

- FLIPR IC50, GRO-α induced intracellular calcium release (Human CXCR2 [1]): 17.8 nM
- FLIPR IC50, GRO-α induced intracellular calcium release (Cynomolgus CXCR2): 12.7 nM
B4: CXCR20027 (bispecific antibody, not shown: small tags and cut ends)
chain: EVQLVESGGGLVQPGGSLRLSCVASGRIFSSNAMGWFRQAPGKEREFVAAITWRSGGSAYYADSAKGRFTISRDNAKNTVYLQMNSLKPEDTAVYYCAAGGSSWLSFPPDYWGQGTQVTVSSGGGGSGGGGSGGGGSGGGGSGGGGSGGGGSGGGGSEVQLVESGGGLVQAGGSLRLSCAASGRTFSDYAMGWFRQAPGKEREFVAAITWNGGRVFYTASVKGRFTISRDNAKNTMYLQMNSLKPEDTAVYYCAADKDRRTDYLGHPVAYWGQGTQVTVSS

- FLIPR IC50, GRO-α induced intracellular calcium release (Human CXCR2 [1]): 137 nM
B6: CXCR20011 (VHH, not shown: small tags and cut ends)
chain: EVQLVESGGGLVQPGGSLRLSCVASGSIVRINTMGWYRQTPGKQRELVADITSGGNINYIDAVKGRFTISRDNTKNTVYLQMNSLKPEDTAVYYCNAEIVVLVGVWTQRARTGNYWGQGTQVTVSSGGGGSGGGGSGGGGSGGGGSGGGGSGGGGSGGGGSEVQLVESGGGLVQPGGSLRLSCVASGSIVRINTMGWYRQTPGKQRELVADITSGGNINYIDAVKGRFTISRDNTKNTVYLQMNSLKPEDTAVYYCNAEIVVLVGVWTQRARTGNYWGQGTQVTVSS

- FLIPR IC50, GRO-α induced intracellular calcium release (Human CXCR2 [1]): 14.7 nM
- FLIPR IC50, GRO-α induced intracellular calcium release (Cynomolgus CXCR2): 3.65 nM
- [35S]GTPγS % inhibition of max, ENA-78 (Human CXCR2 [2]): 100%
- [35S]GTPγS % inhibition of max, IL-8 (Human CXCR2 [2]): 100%
- [35S]GTPγS accumulation IC50, ENA-78 (Human CXCR2 [2]): 0.116 nM
- [35S]GTPγS accumulation IC50, IL-8 (Human CXCR2 [2]): 0.997 nM
B7: CXCR20032 (bispecific antibody, not shown: small tags and cut ends)
chain: EVQLVESGGELVQPGGSLRLSCAASGSILTINAMGWYRQAPGKQRELVVRRTRGGSTTYQDSVKGRFTISADIAKKTMYLQMNSLKPEDTAVYYCMLDDRGGVYWGQGTQVTVSSGGGGSGGGGSGGGGSGGGGSGGGGSGGGGSGGGGSEVQLVESGGGLVQAGGSLRLSCAASGRTFSDYAMGWFRQAPGKEREFVAAITWNGGRVFYTASVKGRFTISRDNAKNTMYLQMNSLKPEDTAVYYCAADKDRRTDYLGHPVAYWGQGTQVTVSS

The remaining lines, values behind:

B1: CXCR20021 (bispecific antibody, not shown: small tags and cut ends)
chain: EVQLVESGGGLVQAGESLRLSCAASGSTFDFKVMGWYRQPPGKQREGVAAIRLSGNMHYAESVKGRFTISKANAKNTVYLQMNSLRPEDTAVYYCKVNIRGQDYWGQGTQVTVSSGGGGSGGGGSGGGGSGGGGSGGGGSGGGGSGGGGSEVQLVESGGGLVQPGGSLRLSCVASGRIFSSNAMGWFRQAPGKEREFVAAITWRSGGSAYYADSAKGRFTISRDNAKNTVYLQMNSLKPEDTAVYYCAAGGSSWLSFPPDYWGQGTQVTVSS
- FLIPR IC50, GRO-α induced intracellular calcium release (Human CXCR2 [1]): 7.32 nM
- FLIPR IC50, GRO-α induced intracellular calcium release (Cynomolgus CXCR2): 2.31 nM
- [35S]GTPγS % inhibition of max, ENA-78 (Human CXCR2 [2]): 100%
- [35S]GTPγS % inhibition of max, GRO-α (Human CXCR2 [2]): 100%
- [35S]GTPγS % inhibition of max, IL-8 (Human CXCR2 [2]): 100%
- [35S]GTPγS accumulation IC50, ENA-78 (Human CXCR2 [2]): 0.787 nM
- [35S]GTPγS accumulation IC50, GRO-α (Human CXCR2 [2]): 0.551 nM
- [35S]GTPγS accumulation IC50, IL-8 (Human CXCR2 [2]): 0.827 nM

B3: CXCR20013 (bispecific antibody, not shown: small tags and cut ends)
chain: EVQLVESGGELVQPGGSLRLSCAASGSILTINAMGWYRQAPGKQRELVVRRTRGGSTTYQDSVKGRFTISADIAKKTMYLQMNSLKPEDTAVYYCMLDDRGGVYWGQGTQVTVSSGGGGSGGGGSGGGGSGGGGSGGGGSGGGGSGGGGSEVQLVESGGGLVQPGGSLRLSCVASGSIVRINTMGWYRQTPGKQRELVADITSGGNINYIDAVKGRFTISRDNTKNTVYLQMNSLKPEDTAVYYCNAEIVVLVGVWTQRARTGNYWGQGTQVTVSS
- FLIPR IC50, GRO-α induced intracellular calcium release (Human CXCR2 [1]): 2.93 nM
- FLIPR IC50, GRO-α induced intracellular calcium release (Cynomolgus CXCR2): 29.2 nM

B5: CXCR20016 (other, not shown: small tags and cut ends)
chain: EVQLVESGGGLVQPGGSVRLSCVASGIIFRLSALGWTRQGPGKAREWVAGINSDGTTNYADPVKGRFTISRDNAKNTIYLHMDMLKPEDTAVYYCASGKYRGQGTQVTVSSGGGGSGGGGSGGGGSGGGGSGGGGSGGGGSGGGGSEVQLVESGGELVQPGGSLRLSCAASGSILTINAMGWYRQAPGKQRELVVRRTRGGSTTYQDSVKGRFTISADIAKKTMYLQMNSLKPEDTAVYYCMLDDRGGVYWGQGTQVTVSS
- FLIPR IC50, GRO-α induced intracellular calcium release (Human CXCR2 [1]): 2.36 nM
- FLIPR IC50, GRO-α induced intracellular calcium release (Cynomolgus CXCR2): 1100 nM
